Measurements: patent publication US20140348819A1, “Methods of Treating Cancer” (Dana-Farber Cancer Institute, Inc., priority 2011, published 2014)

System: six V600E BRAF melanoma cell lines
Assay: Screening of recombinant RTK ligands for ability to confer resistance to BRAFi (PLX4720) or MEKi (PD184352) (Table 4)
Format: cell-based, human
Set-up: ability of recombinant RTK ligand to confer resistance / ability of recombinant RTK ligand to confer resistance (screening value): scale not given here
Method in brief: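 Six V600E BRAF melanoma lines treated with PLX4720 or PD184352 after addition of 22 recombinant RTK ligands, scored for drug resistance. Activation of selected RTKs confirmed by western blotting and high-throughput tyrosine kinase phosphorylation profiling.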

B1: Pleiotrophin (protein, UniProt P21246 33-168, looked up)
Pleiotrophin: GKKEKPEKKVKKSDCGEWQWSVCVPTSGDCGLGTREGTRTGAECKQTMKTQRCKIPCNWKKQFGAECKYQFQAWGECDLNTALKTRTGSLKRALHNAECQKTVTISKPCGKLTKPKPQAESKKKKKEGKKQEKMLD
A2058, PD184352 - 1 uM, ligand 3.9 ng/ml
  ability of recombinant RTK ligand to confer resistance: 1.06
A2058, PD184352 - 1 uM, ligand 15.625 ng/ml
  ability of recombinant RTK ligand to confer resistance: 1.07
A2058, PD184352 - 1 uM, ligand 62.5 ng/ml
  ability of recombinant RTK ligand to confer resistance: 1.03
A2058, PD184352 - 1 uM, ligand 250 ng/ml
  ability of recombinant RTK ligand to confer resistance: 1.00
A2058, PD184352 - 1 uM, ligand 1000 ng/ml
  ability of recombinant RTK ligand to confer resistance: 0.87
A2058, PLX4720 - 2 uM, ligand 3.9 ng/ml
  ability of recombinant RTK ligand to confer resistance: 1.03
A2058, PLX4720 - 2 uM, ligand 15.625 ng/ml
  ability of recombinant RTK ligand to confer resistance: 1.04
A2058, PLX4720 - 2 uM, ligand 62.5 ng/ml
  ability of recombinant RTK ligand to confer resistance: 1.04
A2058, PLX4720 - 2 uM, ligand 250 ng/ml
  ability of recombinant RTK ligand to confer resistance: 1.02
A2058, PLX4720 - 2 uM, ligand 1000 ng/ml
  ability of recombinant RTK ligand to confer resistance: 0.93
C32, PD184352 - 1 uM, ligand 3.9 ng/ml
  ability of recombinant RTK ligand to confer resistance: 1.07
C32, PD184352 - 1 uM, ligand 15.625 ng/ml
  ability of recombinant RTK ligand to confer resistance: 1.08
C32, PD184352 - 1 uM, ligand 62.5 ng/ml
  ability of recombinant RTK ligand to confer resistance: 1.07
C32, PD184352 - 1 uM, ligand 250 ng/ml
  ability of recombinant RTK ligand to confer resistance: 1.12
C32, PD184352 - 1 uM, ligand 1000 ng/ml
  ability of recombinant RTK ligand to confer resistance: 0.99
C32, PLX4720 - 2 uM, ligand 3.9 ng/ml
  ability of recombinant RTK ligand to confer resistance: 1.01
C32, PLX4720 - 2 uM, ligand 15.625 ng/ml
  ability of recombinant RTK ligand to confer resistance: 1.04
C32, PLX4720 - 2 uM, ligand 62.5 ng/ml
  ability of recombinant RTK ligand to confer resistance: 0.95
C32, PLX4720 - 2 uM, ligand 250 ng/ml
  ability of recombinant RTK ligand to confer resistance: 0.96
C32, PLX4720 - 2 uM, ligand 1000 ng/ml
  ability of recombinant RTK ligand to confer resistance: 0.87
Colo 829, PD184352 - 1 uM, ligand 3.9 ng/ml
  ability of recombinant RTK ligand to confer resistance: 1.05
Colo 829, PD184352 - 1 uM, ligand 15.625 ng/ml
  ability of recombinant RTK ligand to confer resistance: 0.99
Colo 829, PD184352 - 1 uM, ligand 62.5 ng/ml
  ability of recombinant RTK ligand to confer resistance: 0.99
Colo 829, PD184352 - 1 uM, ligand 250 ng/ml
  ability of recombinant RTK ligand to confer resistance: 0.96
Colo 829, PD184352 - 1 uM, ligand 1000 ng/ml
  ability of recombinant RTK ligand to confer resistance: 0.95
Colo 829, PLX4720 - 2 uM, ligand 3.9 ng/ml
  ability of recombinant RTK ligand to confer resistance: 1.03
Colo 829, PLX4720 - 2 uM, ligand 15.625 ng/ml
  ability of recombinant RTK ligand to confer resistance: 0.96
Colo 829, PLX4720 - 2 uM, ligand 62.5 ng/ml
  ability of recombinant RTK ligand to confer resistance: 0.97
Colo 829, PLX4720 - 2 uM, ligand 250 ng/ml
  ability of recombinant RTK ligand to confer resistance: 0.36
Colo 829, PLX4720 - 2 uM, ligand 1000 ng/ml
  ability of recombinant RTK ligand to confer resistance: 0.98
G-361, PD184352 - 1 uM, ligand 3.9 ng/ml
  ability of recombinant RTK ligand to confer resistance: 0.96
G-361, PD184352 - 1 uM, ligand 15.625 ng/ml
  ability of recombinant RTK ligand to confer resistance: 0.96
G-361, PD184352 - 1 uM, ligand 62.5 ng/ml
  ability of recombinant RTK ligand to confer resistance: 0.97
G-361, PD184352 - 1 uM, ligand 250 ng/ml
  ability of recombinant RTK ligand to confer resistance: 0.92
G-361, PD184352 - 1 uM, ligand 1000 ng/ml
  ability of recombinant RTK ligand to confer resistance: 0.92
G-361, PLX4720 - 2 uM, ligand 3.9 ng/ml
  ability of recombinant RTK ligand to confer resistance: 1.04
G-361, PLX4720 - 2 uM, ligand 15.625 ng/ml
  ability of recombinant RTK ligand to confer resistance: 0.97
G-361, PLX4720 - 2 uM, ligand 62.5 ng/ml
  ability of recombinant RTK ligand to confer resistance: 0.94
G-361, PLX4720 - 2 uM, ligand 250 ng/ml
  ability of recombinant RTK ligand to confer resistance: 0.94
G-361, PLX4720 - 2 uM, ligand 1000 ng/ml
  ability of recombinant RTK ligand to confer resistance: 1.00
SK-MEL-5, PD184352 - 1 uM, ligand 3.9 ng/ml
  ability of recombinant RTK ligand to confer resistance: 0.93
SK-MEL-5, PD184352 - 1 uM, ligand 15.625 ng/ml
  ability of recombinant RTK ligand to confer resistance: 1.00
SK-MEL-5, PD184352 - 1 uM, ligand 62.5 ng/ml
  ability of recombinant RTK ligand to confer resistance: 1.02
SK-MEL-5, PD184352 - 1 uM, ligand 250 ng/ml
  ability of recombinant RTK ligand to confer resistance: 1.08
SK-MEL-5, PD184352 - 1 uM, ligand 1000 ng/ml
  ability of recombinant RTK ligand to confer resistance: 1.11
SK-MEL-5, PLX4720 - 2 uM, ligand 3.9 ng/ml
  ability of recombinant RTK ligand to confer resistance: 0.92
SK-MEL-5, PLX4720 - 2 uM, ligand 15.625 ng/ml
  ability of recombinant RTK ligand to confer resistance: 0.89
SK-MEL-5, PLX4720 - 2 uM, ligand 62.5 ng/ml
  ability of recombinant RTK ligand to confer resistance: 0.95
SK-MEL-5, PLX4720 - 2 uM, ligand 250 ng/ml
  ability of recombinant RTK ligand to confer resistance: 1.07
SK-MEL-5, PLX4720 - 2 uM, ligand 1000 ng/ml
  ability of recombinant RTK ligand to confer resistance: 0.97
SK-MEL-28, PD184352 - 1 uM, ligand 3.9 ng/ml
  ability of recombinant RTK ligand to confer resistance: 1.11
SK-MEL-28, PD184352 - 1 uM, ligand 15.625 ng/ml
  ability of recombinant RTK ligand to confer resistance: 0.98
SK-MEL-28, PD184352 - 1 uM, ligand 62.5 ng/ml
  ability of recombinant RTK ligand to confer resistance: 0.93
SK-MEL-28, PD184352 - 1 uM, ligand 250 ng/ml
  ability of recombinant RTK ligand to confer resistance: 1.02
SK-MEL-28, PD184352 - 1 uM, ligand 1000 ng/ml
  ability of recombinant RTK ligand to confer resistance: 0.87
SK-MEL-28, PLX4720 - 2 uM, ligand 3.9 ng/ml
  ability of recombinant RTK ligand to confer resistance: 1.04
SK-MEL-28, PLX4720 - 2 uM, ligand 15.625 ng/ml
  ability of recombinant RTK ligand to confer resistance: 0.95
SK-MEL-28, PLX4720 - 2 uM, ligand 62.5 ng/ml
  ability of recombinant RTK ligand to confer resistance: 0.95
SK-MEL-28, PLX4720 - 2 uM, ligand 250 ng/ml
  ability of recombinant RTK ligand to confer resistance: 0.96
SK-MEL-28, PLX4720 - 2 uM, ligand 1000 ng/ml
  ability of recombinant RTK ligand to confer resistance: 0.89
